{"source": "paper PMC2034482", "key": {"[1]": {"target": "T1, Pif1p (nuclear isoform) (Saccharomyces cerevisiae, UniProt P07271 40-859)", "T1 sequence": "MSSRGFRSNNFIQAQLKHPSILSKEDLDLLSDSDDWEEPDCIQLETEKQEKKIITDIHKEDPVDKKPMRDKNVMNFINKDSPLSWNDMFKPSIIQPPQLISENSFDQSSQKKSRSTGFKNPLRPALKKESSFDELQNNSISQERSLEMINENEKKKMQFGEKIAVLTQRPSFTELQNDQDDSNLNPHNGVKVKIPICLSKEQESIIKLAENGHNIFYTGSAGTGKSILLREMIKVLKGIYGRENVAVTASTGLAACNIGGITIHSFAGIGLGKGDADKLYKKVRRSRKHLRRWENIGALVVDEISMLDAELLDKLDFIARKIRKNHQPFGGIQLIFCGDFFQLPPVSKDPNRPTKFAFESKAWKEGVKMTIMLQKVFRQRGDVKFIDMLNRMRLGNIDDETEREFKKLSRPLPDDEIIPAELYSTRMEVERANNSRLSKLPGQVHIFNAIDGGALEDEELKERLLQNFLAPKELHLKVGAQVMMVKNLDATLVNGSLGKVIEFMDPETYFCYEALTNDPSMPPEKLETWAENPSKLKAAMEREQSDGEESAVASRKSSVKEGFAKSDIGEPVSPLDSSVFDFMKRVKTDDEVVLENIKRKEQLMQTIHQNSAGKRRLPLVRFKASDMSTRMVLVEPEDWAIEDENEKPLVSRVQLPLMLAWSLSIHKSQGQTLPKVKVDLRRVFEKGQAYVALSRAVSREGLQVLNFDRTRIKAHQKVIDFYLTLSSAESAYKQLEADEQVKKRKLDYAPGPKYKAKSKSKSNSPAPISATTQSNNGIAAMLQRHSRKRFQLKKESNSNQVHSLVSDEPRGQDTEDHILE", "assay": "EMSA"}, "[2]": {"target": "T1, Pif1p (nuclear isoform)", "assay": "EMSA", "remark": "listed apart in the source"}}, "note": "Read-outs that look alike come from different tables or passages of the source.", "data": [{"binder": "D20 (dsDNA) DNA 1: CGCCATGGTGATCCGAGTGC DNA 2: CACTGGCCGTCTTACGGTCGGCACTCGGATCACCATGGCG", "values": [{"measurement": "Kd", "setting": "[1]", "result": 100, "unit": "nM"}]}, {"binder": "fR20 (DNA:RNA, top strand RNA, bottom strand DNA) RNA: CGCCAUGGUGAUCCGAGUGCAAAAAAAAAA DNA: CACTGGCCGTCTTACGGTCGGCACTCGGATCACCATGGCG", "values": [{"measurement": "Kd", "setting": "[1]", "result": 52, "unit": "nM"}]}, {"binder": "R20 (DNA:RNA, top strand RNA, bottom strand DNA) RNA: CGCCAUGGUGAUCCGAGUGC DNA: CACTGGCCGTCTTACGGTCGGCACTCGGATCACCATGGCG", "values": [{"measurement": "Kd", "setting": "[1]", "result": 17, "unit": "nM"}]}, {"binder": "fD20 (dsDNA) DNA 1: CGCCATGGTGATCCGAGTGCAAAAAAAAAA DNA 2: CACTGGCCGTCTTACGGTCGGCACTCGGATCACCATGGCG", "values": [{"measurement": "Kd", "setting": "[1]", "result": 130, "unit": "nM"}, {"measurement": "Kd", "setting": "[2]", "result": 320, "unit": "nM"}]}]}
